According to patent publication US20170240596A1:
No end group written: not given here.

Target: Prostate-specific membrane antigen (PSMA) (human), Q04609
Assay: apparent Kd, flow cytometry, FAM-labeled peptide on PSMA-positive LNCaP cells, 4 C
Conditions: remark: other sources report otherwise

Chain of Prostate-specific membrane antigen (PSMA) (human), Q04609 (Q04609 whole entry): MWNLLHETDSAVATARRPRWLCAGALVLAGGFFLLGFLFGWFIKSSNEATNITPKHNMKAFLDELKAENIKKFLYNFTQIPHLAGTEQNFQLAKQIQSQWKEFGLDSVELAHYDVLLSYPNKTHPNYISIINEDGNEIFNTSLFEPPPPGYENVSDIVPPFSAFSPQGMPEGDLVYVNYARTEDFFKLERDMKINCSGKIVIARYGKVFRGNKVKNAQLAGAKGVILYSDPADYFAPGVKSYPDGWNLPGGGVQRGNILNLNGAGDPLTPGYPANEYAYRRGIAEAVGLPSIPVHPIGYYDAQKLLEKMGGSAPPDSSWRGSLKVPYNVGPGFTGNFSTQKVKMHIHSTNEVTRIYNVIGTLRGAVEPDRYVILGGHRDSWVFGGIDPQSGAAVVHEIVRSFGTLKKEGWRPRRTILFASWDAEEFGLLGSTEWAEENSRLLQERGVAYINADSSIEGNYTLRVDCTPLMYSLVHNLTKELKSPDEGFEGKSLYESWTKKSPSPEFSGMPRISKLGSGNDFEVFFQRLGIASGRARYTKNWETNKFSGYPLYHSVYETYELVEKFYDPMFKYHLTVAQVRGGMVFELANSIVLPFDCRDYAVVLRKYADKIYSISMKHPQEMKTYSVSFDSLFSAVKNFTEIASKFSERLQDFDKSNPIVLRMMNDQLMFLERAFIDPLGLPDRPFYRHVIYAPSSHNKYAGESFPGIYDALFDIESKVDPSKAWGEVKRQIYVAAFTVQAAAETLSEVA

Kd: 23.6 µM
Binder: WQPDTAHHWATL (also: FAM label, position not given here) [FAM-labeled WQP peptide …]
